Measured values reported in the Immune Epitope Database (IEDB).
pIC50: −log10 of the molar value.

Experiments:
Assay in all cases: IEDB peptide-MHC binding, purified MHC/competitive/radioactivity; ≥ and ≤ were set here for values at or beyond the usual limits of such assays
Details in all cases: source organism: Hepatitis B virus
[1] = target: HLA-A*30:02
[2] = target: HLA-A*29:02
[3] = target: HLA-A*01:01
[4] = target: HLA-B*51:01
[5] = target: HLA-B*53:01
[6] = target: HLA-B*54:01
[7] = target: HLA-A*68:01
[8] = target: HLA-A*23:01
[9] = target: HLA-A*24:02
[10] = target: HLA-A*33:01
[11] = target: HLA-A*31:01
[12] = target: HLA-B*35:01
[13] = target: HLA-A*02:06
[14] = target: HLA-A*02:03
[15] = target: HLA-A*68:02
[16] = target: HLA-A*02:02

ASFCGSPY showed a pIC50 [1] of 8.37, a pIC50 [2] of 7.06 and a pIC50 [3] of 7.29.
With FPHCLAFSYM the pIC50 [4] was 7.16, the pIC50 [5] was 6.89 and the pIC50 [6] was 6.67.
With HTLWKAGILYK the pIC50 [7] was 7.32.
Work on LSLDVSAAFY yielded a pIC50 [2] of 7.35 and a pIC50 [3] of 6.48.
LWFHISCLTF gave a pIC50 [8] of 8.11 and a pIC50 [9] of 8.19.
Work on QAFTFSPTYK yielded a pIC50 [7] of 8.15.
RFSWLSLLVPF was tested, and the pIC50 [8] was 7.90 and the pIC50 [9] was 7.00.
RWMCLRRFII was tested, and the pIC50 [8] was 8.12.
In the case of SAICSVVRR, the pIC50 [7] was 7.64.
STLPETTVVRR was tested, and the pIC50 [10] was 6.73 and the pIC50 [11] was 6.72.
TPARVTGGVF gave a pIC50 [12] of 7.15.
Work on WMMWYWGPSLY yielded a pIC50 [1] of 7.33 and a pIC50 [2] of 6.87.
YMDDVVLGV gave a pIC50 [13] of 7.04, a pIC50 [14] of 7.94 and a pIC50 [15] of 6.38. For the same sequence, the pIC50 [16] was 7.04.
Work on YPALMPLYACI yielded a pIC50 [4] of 6.92 and a pIC50 [6] of 6.95.
